Experimental data published in paper PMC4946995 (Cell, 2016).

T1: Hrd1-SBP (S. cerevisiae, UniProt Q08109 1-551)
T1 sequence (looked up): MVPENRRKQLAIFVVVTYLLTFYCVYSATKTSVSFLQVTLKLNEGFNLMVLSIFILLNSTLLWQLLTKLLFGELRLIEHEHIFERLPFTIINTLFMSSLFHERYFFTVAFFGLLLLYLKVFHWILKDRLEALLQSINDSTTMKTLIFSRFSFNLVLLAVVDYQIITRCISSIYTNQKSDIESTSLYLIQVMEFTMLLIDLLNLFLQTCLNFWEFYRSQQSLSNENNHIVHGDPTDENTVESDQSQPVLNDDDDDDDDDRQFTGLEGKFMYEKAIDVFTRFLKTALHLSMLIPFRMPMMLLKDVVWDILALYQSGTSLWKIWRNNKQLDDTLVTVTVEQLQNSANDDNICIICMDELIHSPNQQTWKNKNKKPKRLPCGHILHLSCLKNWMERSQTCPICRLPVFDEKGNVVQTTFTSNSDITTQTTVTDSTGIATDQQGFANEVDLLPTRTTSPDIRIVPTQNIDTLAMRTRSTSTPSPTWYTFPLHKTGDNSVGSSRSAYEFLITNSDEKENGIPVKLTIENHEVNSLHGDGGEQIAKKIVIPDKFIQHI


Tests used:
Hrd1-SBP (S. cerevisiae) = Hrd1-SBP (S. cerevisiae) (UniProt Q08109); test: pull-down
Hrd1-SBP = target: T1, Hrd1-SBP; test: pull-down

Kd (Hrd1-SBP (S. cerevisiae))	Kd (Hrd1-SBP)	Molecule
20 nM	–	misfolded carboxypeptidase Y (CPY*) (from UniProt P00729 21-532) (natural protein)
–	~110 nM	CPY-TM2 (other, DyLight800 at the C-terminus, attached with sortase (GGGC-coupled fluorophore)) ISLQRPLGLDKDVLLQAAEKFGLDLDLDHLLKELDSNVLDAWAQIEHLYPNQVMSLETSTKPKFPEAIKTKKDWDFVVKNDAIENYQLRVNKIKDPKILGIDPNVTQYTGYLDVEDEDKHFFFWTFESRNDPAKDPVILWLNGGPGCSSLTGLFFELGPSSIGPDLKPIGNPYSWNSNATVIFLDQPVNVGFSYSGSSGVSNTVAAGKDVYNFLELFFDQFPEYVNKGQDFHIAGESYAGHYIPVFASEILSHKDRNFNLTSVLIGNGLTDPLTQYNYYEPMACGEGGEPSVLPSEECSAMEDSLERCLGLIESCYDSQSVWSCVPATIYCNNAQLAPYQRTGRNVYDIRKDCEGGNLCYPTLQDIDDYLNQDYVKEAVGAEVDHYESCNFDINRNFLFAGDWMKPYHTAVTDLLNQDLPILVYAGDKDFICNWLGNKAWTDVLPWKYDEEFASQKVRNWTASITDEVAGEVKSYKHFTYLRVFNGGHMVPFDVPENALSMVNEWIHGGFSLMLLFFWIPLTLVLLLCFTLSNL

The next lines start with the molecule.

Molecule	Kd (Hrd1-SBP (S. cerevisiae))	Kd (Hrd1-SBP)
CPY*-TM2 (other, DyLight800 at the C-terminus, attached with sortase (GGGC-coupled fluorophore)) ISLQRPLGLDKDVLLQAAEKFGLDLDLDHLLKELDSNVLDAWAQIEHLYPNQVMSLETSTKPKFPEAIKTKKDWDFVVKNDAIENYQLRVNKIKDPKILGIDPNVTQYTGYLDVEDEDKHFFFWTFESRNDPAKDPVILWLNGGPGCSSLTGLFFELGPSSIGPDLKPIGNPYSWNSNATVIFLDQPVNVGFSYSGSSGVSNTVAAGKDVYNFLELFFDQFPEYVNKGQDFHIARESYAGHYIPVFASEILSHKDRNFNLTSVLIGNGLTDPLTQYNYYEPMACGEGGEPSVLPSEECSAMEDSLERCLGLIESCYDSQSVWSCVPATIYCNNAQLAPYQRTGRNVYDIRKDCEGGNLCYPTLQDIDDYLNQDYVKEAVGAEVDHYESCNFDINRNFLFAGDWMKPYHTAVTDLLNQDLPILVYAGDKDFICNWLGNKAWTDVLPWKYDEEFASQKVRNWTASITDEVAGEVKSYKHFTYLRVFNGGHMVPFDVPENALSMVNEWIHGGFSLMLLFFWIPLTLVLLLCFTLSNL	–	~30 nM
CPY-TM (other, DyLight800 at the C-terminus, attached with sortase (GGGC-coupled fluorophore)) ISLQRPLGLDKDVLLQAAEKFGLDLDLDHLLKELDSNVLDAWAQIEHLYPNQVMSLETSTKPKFPEAIKTKKDWDFVVKNDAIENYQLRVNKIKDPKILGIDPNVTQYTGYLDVEDEDKHFFFWTFESRNDPAKDPVILWLNGGPGCSSLTGLFFELGPSSIGPDLKPIGNPYSWNSNATVIFLDQPVNVGFSYSGSSGVSNTVAAGKDVYNFLELFFDQFPEYVNKGQDFHIAGESYAGHYIPVFASEILSHKDRNFNLTSVLIGNGLTDPLTQYNYYEPMACGEGGEPSVLPSEECSAMEDSLERCLGLIESCYDSQSVWSCVPATIYCNNAQLAPYQRTGRNVYDIRKDCEGGNLCYPTLQDIDDYLNQDYVKEAVGAEVDHYESCNFDINRNFLFAGDWMKPYHTAVTDLLNQDLPILVYAGDKDFICNWLGNKAWTDVLPWKYDEEFASQKVRNWTASITDEVAGEVKSYKHFTYLRVFNGGHMVPFDVPENALSMVNEWIHGGFSLNYGIFICYIAFNYIAGVFFYWLA	–	~120 nM
